First the molecules themselves.
B1: Compound A98 (peptide)
peptide: YSHGTFTSDYTRLLESKRAQEFVKWLEDEPSSGAPPPS
B2: Compound A100 (peptide)
peptide: YSHGTFTSDYSKYLD[Aib]KRAQEFV[Aib]WLEDE-OH
modifications: N-terminus assumed
SMILES: CC(C)C[C@H](NC(=O)[C@H](Cc1ccc(O)cc1)NC(=O)[C@H](CCCCN)NC(=O)[C@H](CO)NC(=O)[C@H](Cc1ccc(O)cc1)NC(=O)[C@H](CC(=O)O)NC(=O)[C@H](CO)NC(=O)[C@@H](NC(=O)[C@H](Cc1ccccc1)NC(=O)[C@@H](NC(=O)CNC(=O)[C@H](Cc1c[nH]cn1)NC(=O)[C@H](CO)NC(=O)[C@@H](N)Cc1ccc(O)cc1)[C@@H](C)O)[C@@H](C)O)C(=O)N[C@@H](CC(=O)O)C(=O)NC(C)(C)C(=O)N[C@@H](CCCCN)C(=O)N[C@@H](CCCNC(=N)N)C(=O)N[C@@H](C)C(=O)N[C@@H](CCC(N)=O)C(=O)N[C@@H](CCC(=O)O)C(=O)N[C@@H](Cc1ccccc1)C(=O)N[C@H](C(=O)NC(C)(C)C(=O)N[C@@H](Cc1c[nH]c2ccccc12)C(=O)N[C@@H](CC(C)C)C(=O)N[C@@H](CCC(=O)O)C(=O)N[C@@H](CC(=O)O)C(=O)N[C@@H](CCC(=O)O)C(=O)O)C(C)C
B3: Compound A99 (peptide)
peptide: YSHGTFTSDYSKYLD[Aib]KRAQEFV[Aib]WLEDEPSSGAPPPS-OH
modifications: N-terminus assumed
SMILES: CC(C)C[C@H](NC(=O)[C@H](Cc1ccc(O)cc1)NC(=O)[C@H](CCCCN)NC(=O)[C@H](CO)NC(=O)[C@H](Cc1ccc(O)cc1)NC(=O)[C@H](CC(=O)O)NC(=O)[C@H](CO)NC(=O)[C@@H](NC(=O)[C@H](Cc1ccccc1)NC(=O)[C@@H](NC(=O)CNC(=O)[C@H](Cc1c[nH]cn1)NC(=O)[C@H](CO)NC(=O)[C@@H](N)Cc1ccc(O)cc1)[C@@H](C)O)[C@@H](C)O)C(=O)N[C@@H](CC(=O)O)C(=O)NC(C)(C)C(=O)N[C@@H](CCCCN)C(=O)N[C@@H](CCCNC(=N)N)C(=O)N[C@@H](C)C(=O)N[C@@H](CCC(N)=O)C(=O)N[C@@H](CCC(=O)O)C(=O)N[C@@H](Cc1ccccc1)C(=O)N[C@H](C(=O)NC(C)(C)C(=O)N[C@@H](Cc1c[nH]c2ccccc12)C(=O)N[C@@H](CC(C)C)C(=O)N[C@@H](CCC(=O)O)C(=O)N[C@@H](CC(=O)O)C(=O)N[C@@H](CCC(=O)O)C(=O)N1CCC[C@H]1C(=O)N[C@@H](CO)C(=O)N[C@@H](CO)C(=O)NCC(=O)N[C@@H](C)C(=O)N1CCC[C@H]1C(=O)N1CCC[C@H]1C(=O)N1CCC[C@H]1C(=O)N[C@@H](CO)C(=O)O)C(C)C
B4: Compound A97 (peptide)
peptide: YSHGTFTSDYSKYLDAARAQEFVKWLEDEPSSGAPPPS
B5: Compound B48 (peptide)
peptide: YSHGTFTSDK(Formula III)SKYLDSARAQEFVKWLEDEPSSGAPPPS-NH2
modifications: reading uncertain
B6: Compound B47 (peptide)
peptide: YSHGTFTSDYSKYLDK(Formula III)ARAQEFVKWLEDEPSSGAPPPS-NH2
modifications: reading uncertain
B7: Compound B45 (peptide)
peptide: YSHGTFTSDYSKYLDSARAQEFVKWLEDEPSSK(Formula III)APPPS-NH2
modifications: reading uncertain
B8: Compound B46 (peptide)
peptide: YSHGTFTSDYSKYLDSARAQEFVK(Formula III)WLEDEPSSGAPPPS-NH2
modifications: reading uncertain

Where no end group is shown, it is not given here. [ ]: non-standard residue; d: D form. Formula III = not defined here; Aib = CC(C)(N)C(=O)O

Consider 8 molecules from patent publication US20180009871A1 (INTARCIA THERAPEUTICS, published 2018).

T1 sequence (P43220 24-463): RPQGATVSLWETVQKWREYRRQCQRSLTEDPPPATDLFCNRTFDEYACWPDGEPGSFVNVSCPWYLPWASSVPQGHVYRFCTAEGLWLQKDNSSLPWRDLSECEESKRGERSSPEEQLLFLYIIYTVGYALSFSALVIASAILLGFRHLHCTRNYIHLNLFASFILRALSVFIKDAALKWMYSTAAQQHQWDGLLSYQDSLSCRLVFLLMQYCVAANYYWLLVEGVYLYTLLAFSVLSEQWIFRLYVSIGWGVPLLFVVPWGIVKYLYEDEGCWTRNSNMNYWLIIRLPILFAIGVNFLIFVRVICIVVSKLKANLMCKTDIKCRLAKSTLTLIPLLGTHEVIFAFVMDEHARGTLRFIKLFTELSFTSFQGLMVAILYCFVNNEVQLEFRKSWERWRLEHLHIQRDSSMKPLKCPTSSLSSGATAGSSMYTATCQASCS

The first assay concerns the target T1, human GLP-1 receptor (GLP-1R) (human, UniProt P43220 24-463). As to the kind of experiment: cell-based or functional assay.
In the case of B1, the “hGLP1 pEC50 (cAMP)” value is less than 9 pEC50.
Take B2: the “hGLP1 pEC50 (cAMP)” value was less than 9 pEC50.
With B3, the “hGLP1 pEC50 (cAMP)” value is less than 9 pEC50.
With B4, the “hGLP1 pEC50 (cAMP)” value is less than 9 pEC50.

For the next assay, the target named is human glucagon receptor (GCGR) (human, UniProt P47871 26-477). As to the kind of experiment: cell-based or functional assay.
For the molecule B5, the “GluR pEC 50” value is 9.2 pEC50.
Same read-out and setting: the result for B6 reads 10.8 pEC50.
The same measure, in the same setting: next, B7: 9.8 pEC50; B8: 9.5 pEC50.

The next assay has as its target T1, human GLP-1 receptor (GLP-1R). The experiment in a line: cell-based or functional assay. The source holds these as a separate data set.
Regarding B5, the “GLP-1R pEC 50” value was less than 6 pEC50.
On the same count and under the same terms, the result for B6 reads less than 6 pEC50; that for B7, less than 6 pEC50.
On the same count and under the same terms, the result for B8 reads less than 6 pEC50.
